Entries after “also recorded” stand apart in the source; their conditions may differ. Where no end group is shown, it is not given here. [ ]: non-standard residue; d: D form. Orn = NCCC[C@H](N)C(=O)O

In the first assay the target is T1, DPPIV (Mus musculus, UniProt P28843).
T1 construct: The plasma was transferred to a 96-well assay plate for the DPPIV assay; from tissue; host or cells: pooled heparinized whole blood of ICR mice; plasma isolated after incubation
T1 sequence (P28843 37-760 limits assumed): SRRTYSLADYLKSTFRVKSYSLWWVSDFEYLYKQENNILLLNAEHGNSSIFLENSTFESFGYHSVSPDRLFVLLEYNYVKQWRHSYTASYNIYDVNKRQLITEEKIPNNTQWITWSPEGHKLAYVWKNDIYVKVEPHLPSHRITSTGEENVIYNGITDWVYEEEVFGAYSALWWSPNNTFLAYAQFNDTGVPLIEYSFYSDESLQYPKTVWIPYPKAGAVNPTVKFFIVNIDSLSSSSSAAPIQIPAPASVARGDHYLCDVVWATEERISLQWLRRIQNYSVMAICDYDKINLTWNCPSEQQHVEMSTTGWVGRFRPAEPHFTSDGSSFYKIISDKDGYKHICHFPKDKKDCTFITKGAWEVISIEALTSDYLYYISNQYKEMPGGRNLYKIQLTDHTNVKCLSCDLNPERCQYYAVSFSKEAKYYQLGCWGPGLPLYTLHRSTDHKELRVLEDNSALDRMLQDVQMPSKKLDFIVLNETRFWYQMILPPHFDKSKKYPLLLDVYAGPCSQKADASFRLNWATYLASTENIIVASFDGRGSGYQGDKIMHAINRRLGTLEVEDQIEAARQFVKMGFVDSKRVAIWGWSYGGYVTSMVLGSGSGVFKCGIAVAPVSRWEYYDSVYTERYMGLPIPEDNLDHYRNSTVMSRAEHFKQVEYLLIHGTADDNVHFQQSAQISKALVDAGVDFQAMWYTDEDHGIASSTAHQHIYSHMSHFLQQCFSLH
In words: Plasma DPPIV activity assay with mouse blood. Format: biochemical. The note with it: peptide 0.82 mM in mouse blood, 2 h at 37° C.; relative to saline control set to 100%. The method, then:
Mouse blood was obtained by cardiac puncture from ICR mice and collected in heparinized blood collection tubes. Blood from several mice was pooled and aliquoted into […]. The peptide was dissolved in acetate buffered saline, pH 5.5, to a concentration of 9 mM. Of this stock solution 30 μL were added to 300 μL of blood and mixed by resuspension (concentration in blood 0.82 mM). For the control, 30 μL of blank acetate buffered saline was added to 300 μL of blood. Each peptide group was prepared in triplicate, whereas the control was prepared in six replicates. The samples were incubated at 37° C. in closed microtubes for two hours. After incubation the plasma was isolated from the samples by centrifugation at 4000 rcf. The plasma was transferred to a 96-well assay plate for the DPPIV assay. The assay was started by adding 5 μL of the DPPIV substrate gly-pro-p-nitroanilide (16 mM in de-ionized water) to 95 μl of plasma (concentration in plasma 0.8 mM) and the increase in UV absorbance (405 nm) was monitored over a 20 min time period. The rate of the production of p-nitroaniline by enzymatic cleavage of gly-pro-p-nitroanilide was taken as the activity of DPPIV (Durinx C et al., (2001) “Reference values for plasma dipeptidyl-peptidase IV activity and their association with other laboratory parameters”. Clin Chem Lab Med. 39(2):155-9.)
The effect of the peptides on the activity of DPPIV was observed. Results are presented as normalized, averaged % activity relative to saline control (set to 100%). Anything less than 100% activity represents a reduction in DPPIV activity.
In one aspect of the invention, a reduction by of DPPIV activity by about, or in one embodiment, at least, 25% (i.e. to about 75%+/−5%) was deemed to be active. A person skilled in the art would appreciate that the desired level of activity may vary depending on the use of the peptides.
Regarding “3 (SRIVPA; IMMUNOLOGICAL PEPTIDE) [compound 3]”, the “% DPPIV Activity (Saline)” value worked out at 60%.

On to “4 (SRIVP; IMMUNOLOGICAL PEPTIDE) [compound 4]”, for which the “% DPPIV Activity (Saline)” value amounted to 64%.

Take “6 (KIVPA; IMMUNOLOGICAL PEPTIDE) [compound 6]”: the “% DPPIV Activity (Saline)” value stood at 64%.

“8 (RVPA; IMMUNOLOGICAL PEPTIDE) [compound 8]”: the “% DPPIV Activity (Saline)” value came to 64%.

Turning to “9 (RIPA; IMMUNOLOGICAL PEPTIDE) [compound 9]”, the “% DPPIV Activity (Saline)” value worked out at 51%.

As to “11 (RAVPA; IMMUNOLOGICAL PEPTIDE) [compound 11]”, the “% DPPIV Activity (Saline)” value was 39%.

Take “12 (RRIVPA; IMMUNOLOGICAL PEPTIDE) [compound 12]”: the “% DPPIV Activity (Saline)” value came to 61%.

For 13 (RKVPA-NH2) [compound 13], the “% DPPIV Activity (Saline)” value was found to be 50%.

On to 14 (RIVPK-NH2) [compound 14], for which the “% DPPIV Activity (Saline)” value is on record as 67%.

Take 15 (RPVPA-NH2) [compound 15]: the “% DPPIV Activity (Saline)” value turned out to be 27%.

With 16 (RIPPA-NH2) [compound 16], the “% DPPIV Activity (Saline)” value is given as 66%.

As to 17 (RIVPP-NH2) [compound 17], the “% DPPIV Activity (Saline)” value is on record as 82%.

For 18 (RIVPGGA-NH2) [compound 18], the “% DPPIV Activity (Saline)” value is 65%.

Turning to 19 (GGIVPA-NH2) [compound 19], the “% DPPIV Activity (Saline)” value is reported as 70%.

Regarding 20 (GIVPA-NH2) [compound 20], the “% DPPIV Activity (Saline)” value is 73%.

Take 21 (RGVPA-NH2) [compound 21]: the “% DPPIV Activity (Saline)” value was 64%.

In the case of 22 (RIVPG-NH2) [compound 22], the “% DPPIV Activity (Saline)” value is reported as 61%.

Turning to 23 (RIVPS-NH2) [compound 23], the “% DPPIV Activity (Saline)” value was 62%.

24 (RIVPL-NH2) [compound 24]: the “% DPPIV Activity (Saline)” value worked out at 74%.

For the substance 25 (RHVPA-NH2) [compound 25], the “% DPPIV Activity (Saline)” value worked out at 38%.

26 (RIPVA-NH2) [compound 26]: the “% DPPIV Activity (Saline)” value was −4%.

Consider 27 (RVIPA-NH2) [compound 27], for which the “% DPPIV Activity (Saline)” value came to 67%.

On to 28 (RIIPA-NH2) [compound 28], for which the “% DPPIV Activity (Saline)” value was 20%.

As to 29 (AVPIR-NH2) [compound 29], the “% DPPIV Activity (Saline)” value turned out to be 0%.

Turning to 30 (APVIR-NH2) [compound 30], the “% DPPIV Activity (Saline)” value is recorded as 36%.

As for 35 (RIVPF-NH2) [compound 35], the “% DPPIV Activity (Saline)” value was 77%.

On to 37 (RLVPA-NH2) [compound 37], for which the “% DPPIV Activity (Saline)” value stood at 39%.

For the substance 38 (HIVPA-NH2) [compound 38], the “% DPPIV Activity (Saline)” value was 47%.

40 (ARVPA-NH2) [compound 40]: the “% DPPIV Activity (Saline)” value stood at 68%.

Turning to 41 (IRVPA-NH2) [compound 41], the “% DPPIV Activity (Saline)” value was determined as 49%.

As to 43 (SIVPA-NH2) [compound 43], the “% DPPIV Activity (Saline)” value came to 80%.

As for “45 (KPARVPS; IMMUNOLOGICAL PEPTIDE) [compound 45]”, the “% DPPIV Activity (Saline)” value stood at 27%.

As to 46 (RVPSLL-NH2) [compound 46], the “% DPPIV Activity (Saline)” value was 70%.

Regarding “47 (KPRAVP; IMMUNOLOGICAL PEPTIDE) [compound 47]”, the “% DPPIV Activity (Saline)” value was 52%.

49 (IRVP-NH2) [compound 49]: the “% DPPIV Activity (Saline)” value is on record as 56%.

Consider 50 (RVPS-NH2) [compound 50], for which the “% DPPIV Activity (Saline)” value is reported as 59%.

Take 51 (Arg-Val-Pro-NH2) [compound 51]: the “% DPPIV Activity (Saline)” value amounted to 70%.

Regarding 52 (PSVPGS-NH2) [compound 52], the “% DPPIV Activity (Saline)” value is on record as 74%.

Regarding 53 (GLKHPS-NH2) [compound 53], the “% DPPIV Activity (Saline)” value is 68%.

With 54 (RIVPAIPVSLL-NH2) [compound 54], the “% DPPIV Activity (Saline)” value was 4%.

For 61 (RIVPAC-NH2) [compound 61], the “% DPPIV Activity (Saline)” value is reported as 52%.

For the substance “62 ([code r][code r]VP-NH2) [compound 62]”, the “% DPPIV Activity (Saline)” value stood at 51%.

With 64 (RIVPPA-NH2) [compound 64], the “% DPPIV Activity (Saline)” value amounted to 74%.

For 65 (RIGPA-NH2) [compound 65], the “% DPPIV Activity (Saline)” value amounted to 77%.

Regarding 70 (RIHPA-NH2) [compound 70], the “% DPPIV Activity (Saline)” value amounted to 37%.

Consider 71 (RIWPA-NH2) [compound 71], for which the “% DPPIV Activity (Saline)” value is 78%.

With 72 (RIVPW-NH2) [compound 72], the “% DPPIV Activity (Saline)” value amounted to 71%.

Consider 73 (SPVIRH-NH2) [compound 73], for which the “% DPPIV Activity (Saline)” value was determined as 66%.

Turning to 74 (CPVIRH-NH2) [compound 74], the “% DPPIV Activity (Saline)” value is 45%.

“75 (RIEPA; IMMUNOLOGICAL PEPTIDE) [compound 75]”: the “% DPPIV Activity (Saline)” value was found to be 79%.

Take 76 (RIVPE-NH2) [compound 76]: the “% DPPIV Activity (Saline)” value is 69%.

Consider 77 (RIVPH-NH2) [compound 77], for which the “% DPPIV Activity (Saline)” value was 53%.

Take 78 (RSVPA-NH2) [compound 78]: the “% DPPIV Activity (Saline)” value worked out at 75%.

For the substance 80 (KVIPS-NH2) [compound 80], the “% DPPIV Activity (Saline)” value is 30%.

In the case of 81 (KVVPS-NH2) [compound 81], the “% DPPIV Activity (Saline)” value is given as 57%.

As for 82 (KPRP-NH2) [compound 82], the “% DPPIV Activity (Saline)” value came out at 52%.

As for 83 (Arg-Ile-Pro-NH2) [compound 83], the “% DPPIV Activity (Saline)” value is listed as 47%.

“84 ([Orn]-Val-Pro-NH2; N-terminus assumed; SMILES CC(C)[C@H](NC(=O)[C@@H](N)CCCN)C(=O)N1CCC[C@H]1C(N)=O) [compound 84]”: the “% DPPIV Activity (Saline)” value turned out to be 79%.

Regarding 85 (Ser-Val-Pro-NH2) [compound 85], the “% DPPIV Activity (Saline)” value is listed as 71%.

As to 86 (Lys-Val-Pro-NH2) [compound 86], the “% DPPIV Activity (Saline)” value is recorded as 49%.

As to 87 (Arg-Arg-Pro-NH2) [compound 87], the “% DPPIV Activity (Saline)” value came to 72%.

For the substance 88 (Gly-Val-Pro-NH2) [compound 88], the “% DPPIV Activity (Saline)” value is reported as 69%.

Take 89 (Lys-His-Pro-NH2) [compound 89]: the “% DPPIV Activity (Saline)” value stood at 72%.

With 90 (RIVPA[dY]-NH2) [compound 90], the “% DPPIV Activity (Saline)” value is recorded as 59%.

Another assay concerns S. aureus 25923. Kind of assay: Non-antimicrobial activity, WST-1 colorimetric bacterial viability assay. The note with it: peptide 200 μM, 2 hours growth, compared with erythromycin 120 μg/ml. It is filed as cell-based. The protocol:
Bacteria (S. aureus 25923) were seeded into wells containing peptide (200 μM), vehicle (Tris), or antibiotic (erythromycin; 120 μg/ml). The bacteria were allowed to grow for 2 hours. Thereafter, bacterial viability was determined utilizing a WST-1 colorimetric viability assay (catalogue number 1 644 807; Roche Diagnostics). DMEM and DMEM+WST-1 were included as background controls.
(Tetrazolium assays rely on reduction of a dye to a coloured formazan, in cell work by metabolically active cells.)
“47 (KPRAVP; IMMUNOLOGICAL PEPTIDE) [compound 47]”: the “antimicrobial activity (bacterial viability)” value was “lack of activity; also recorded: lacked antimicrobial activity”.

The next assay has as its system S. aureus 25923. In words: In vivo protection, mice infected IP with S. aureus, peptide after infection. The note with it: peptide IP 4 hours after infection, 9-24 mg/kg depending on peptide, 24 hours post-infection, vs control. The method, then:
Mice were infected with S. aureus 25923 via intraperitoneal (IP) injection. Four hours later, the peptide of SEQ ID NOs:1, 4, 5, 6, 45, and 47 were administered at 12 mg/kg and 24 mg/kg for SEQ. ID. NO. 1 (FIGS. 2A and 2B), 9.6 mg/kg for SEQ. ID. NO. 5 (FIG. 2C), 13 mg/kg for SEQ. ID. NO. 47 (FIG. 2D), 12 mg/kg for SEQ. ID. NO. 4 (FIG. 2E), 9 mg/kg for SEQ. ID. NO. 6 (FIG. 2F), and 13 mg/kg for SEQ. ID. NO. 45 (FIG. 2G), via IP injection. Twenty-four hours post-infection, surviving animals were sacrificed, and intraperitoneal lavage fluid was plated to determine residual bacterial counts (# colony forming units per ml (CFU/ml)) in the presence and absence of peptide treatment.
Dead animals were assigned the highest bacterial count of any animal in the study.
As to “4 (SRIVP; IMMUNOLOGICAL PEPTIDE) [compound 4]”, the “protection (residual bacterial counts CFU/ml in intraperitoneal lavage fluid)” value is “clearly demonstrated protection”.

Take “6 (KIVPA; IMMUNOLOGICAL PEPTIDE) [compound 6]”: the “protection (residual bacterial counts CFU/ml in intraperitoneal lavage fluid)” value is on record as “clearly demonstrated protection”.

As to “45 (KPARVPS; IMMUNOLOGICAL PEPTIDE) [compound 45]”, the “protection (residual bacterial counts CFU/ml in intraperitoneal lavage fluid)” value is “clearly demonstrated protection”.

On to “47 (KPRAVP; IMMUNOLOGICAL PEPTIDE) [compound 47]”, for which the “protection (residual bacterial counts CFU/ml in intraperitoneal lavage fluid)” value is “clearly demonstrated protection”.

The values above are taken from patent US8791061B2, “Peptides for treating and preventing immune-related disorders, including treating and preventing infection by modulating innate immunity” (Soligenix, Inc., priority 2005, dated 2014).
